# Data: US20210380703A1
# Changes are numbered by the printed parent chain.
# B1: 369_A03 (antibody, V domains shown)
# VH: EVQLLESGGGLVQPGGSLRLSCAASGFTFSSYGMNWVRQAPGKGLEWVSNINYNGGYTGYADSVKGRFTISRDNSKNTLYLQMNSLRAEDTAVYYCARSANWHDTALDYWGQGTLVTVSS
# VL: DIQMTQSPSSLSASVGDRVTITCRASQSILTYLNWYQQKPGKAPKLLIYAVTSRHSGVPSRFSGSGSGTDFTLTISSLQPEDFATYYCQQGYDLPLTFGGGTKVEIK
# B2: 369_F08 (antibody, V domains shown)
# VH: B1 VH with S31D, N35H, N50G, G55S, G59S, S99G
# VL: B1 VL with T31S, V51A, T52S, R54L, H55Q, G91S
# B3: 371_C09 (antibody, V domains shown)
# VH: B1 VH with S30D, G33S, N50G, T58K, G59S, N101T, A106H
# VL: B1 VL with L33V, V51A, T52S, R54L, H55Q, G91S, L94N
# B4: 369_F12 (antibody, V domains shown)
# VH: B1 VH with G33S, S49A, N50S, G55S, T58K, G59S, N101T, A106H
# VL: B1 VL with L30I, T31S, R54L, H55A, G91S, D93E, L94N
# B5: 374_D12 (antibody, V domains shown)
# VH: B1 VH with S30D, G33S, N50G, N101T, A106H
# VL: B1 VL with L30V, T31S, L33V, L47V, V51A, H55A, G91S
# B6: 374_H08 (antibody, V domains shown)
# VH: B1 VH with S30D, G33S, N50G, N101T, A106H
# VL: B1 VL with T31S, V51A, R54L, G91S, D93E, L94N
# B7: 374_E09 (antibody, V domains shown)
# VH: B1 VH with S31D, G33S, N50G, T58K, N101T, A106H
# VL: B1 VL with L30V, L47V, V51A, H55A, G91S, L94S
# B8: 370_C04 (antibody, V domains shown)
# VH: B1 VH with S49A, N50S, G55S, G59S, N101T, A106H
# VL: B1 VL with T31S, V51A, T52S, R54L, H55Q, G91S, D93E, L94N
# B9: 369_B12 (antibody, V domains shown)
# VH: B1 VH with S30D, G33S, N50G, T58K, G59S, N101T, A106H
# VL: B1 VL with L33V, V51T, R54L, H55A, G91S, L94S
# B10: 365_C09 (antibody, V domains shown)
# VH: B1 VH with S31D, N50G, T58K, G59S, N101T, A106H
# VL: B1 VL with L30V, T31S, L33V, V51A, H55A, G91S, L94T
# B11: 370_A06 (antibody, V domains shown)
# VH: B1 VH with G33S, S49A, N50S, G55S, T58K, G59S, N101T, A106H
# VL: B1 VL with L30V, L47V, V51A, R54L, H55A, G91S
# B12: 374_C02 (antibody, V domains shown)
# VH: B1 VH with S30D, G33S, N50G, N101T, A106H
# VL: B1 VL with T31S, V51A, G91S, L94S
# B13: 369_B02 (antibody, V domains shown)
# VH: B1 VH with S30D, G33S, N50G, T58K, G59S, N101T, A106H
# VL: B1 VL with T31S, L47V, V51A, H55A, G91S, D93N
# B14: 374_B09 (antibody, V domains shown)
# VH: B1 VH with G33S, N50G, T58K, G59S, N101T, A106H
# VL: B1 VL with L30V, T31R, L47V, V51A, R54L, H55A, G91S, D93E
# Target: Human Fc (human)
# Assay: ELISA, negative control
row,Binder,optical density [OD]
1,B1,0.347

# Target: human Fc (human)
# Assay: ELISA, negative control
row,Binder,optical density [OD]
1,B2,0.302

# Target: human ACVR2A (human) (UniProt P27037)
# Assay: ELISA
# Chain of human ACVR2A (human) (P27037 20-135 limits assumed): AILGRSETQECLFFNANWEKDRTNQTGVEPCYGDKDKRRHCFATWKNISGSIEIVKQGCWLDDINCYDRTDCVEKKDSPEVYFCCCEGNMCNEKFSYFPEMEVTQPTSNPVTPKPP
row,Binder,optical density [OD]
1,B2,0.503

# Target: Mouse ACVR2A (mouse) (UniProt P27038)
# Assay: ELISA
# Chain of Mouse ACVR2A (mouse) (P27038 20-135 limits assumed): as the sequence (P27037 20-135 limits assumed) above, with K20R, V73I counted along it
row,Binder,optical density [OD]
1,B1,0.561
2,B2,0.589

# Target: human Fc (human)
# Assay: ELISA; negative control
row,Binder,optical density [OD]
1,B3,0.308
2,B4,0.434
3,B5,0.235
4,B6,0.199
5,B7,0.162
6,B8,0.334
7,B9,0.4
8,B10,0.266
9,B11,0.331
10,B12,0.167
11,B13,0.456
12,B14,0.172
